In publication PMC2935576 (The Journal of Cell Biology, 2010):

Tests used:
[1] = biological target: Spc105p 800-829 (UniProt P53148); assay: ITC, Spc105p peptide 1 with MIND complex; settings: reference: untreated MIND complex; sites S250
[2] = biological target: recombinant S. cerevisiae NDC80 complex (Ndc80p, Nuf2p, Spc24p, Spc25p), His-tagged on Ndc80p (S. cerevisiae, UniProt P40460;P33895;Q04477;P40014); assay: ITC
[3] = biological target: T1, Dsn1p residues 103–412 (trypsin-resistant fragment) (S. cerevisiae, UniProt P40568 103-412); assay: limited proteolysis
T1 sequence: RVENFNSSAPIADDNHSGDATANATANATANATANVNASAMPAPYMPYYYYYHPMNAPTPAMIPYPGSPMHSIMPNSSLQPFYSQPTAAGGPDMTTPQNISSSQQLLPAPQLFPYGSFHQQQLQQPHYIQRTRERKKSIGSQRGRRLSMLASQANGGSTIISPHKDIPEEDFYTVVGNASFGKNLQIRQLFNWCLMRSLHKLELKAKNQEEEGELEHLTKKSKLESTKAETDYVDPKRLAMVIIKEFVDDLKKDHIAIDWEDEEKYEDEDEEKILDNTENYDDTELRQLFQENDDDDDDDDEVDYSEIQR

[4] = biological target: T2, Mtw1p residues 1–220 (trypsin-resistant fragment) (S. cerevisiae, UniProt P39731 1-220); assay: limited proteolysis
T2 sequence: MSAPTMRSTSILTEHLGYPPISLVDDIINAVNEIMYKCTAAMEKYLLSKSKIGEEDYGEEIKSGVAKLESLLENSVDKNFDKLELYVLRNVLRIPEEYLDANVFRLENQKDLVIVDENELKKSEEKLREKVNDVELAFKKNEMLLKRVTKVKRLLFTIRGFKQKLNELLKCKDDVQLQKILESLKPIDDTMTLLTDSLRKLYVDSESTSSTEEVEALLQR

[5] = biological target: T3, Dsn1p–Nsl1p heterodimer (S. cerevisiae, UniProt P40568;Q12143); assay: AUC
T3 sequence 1: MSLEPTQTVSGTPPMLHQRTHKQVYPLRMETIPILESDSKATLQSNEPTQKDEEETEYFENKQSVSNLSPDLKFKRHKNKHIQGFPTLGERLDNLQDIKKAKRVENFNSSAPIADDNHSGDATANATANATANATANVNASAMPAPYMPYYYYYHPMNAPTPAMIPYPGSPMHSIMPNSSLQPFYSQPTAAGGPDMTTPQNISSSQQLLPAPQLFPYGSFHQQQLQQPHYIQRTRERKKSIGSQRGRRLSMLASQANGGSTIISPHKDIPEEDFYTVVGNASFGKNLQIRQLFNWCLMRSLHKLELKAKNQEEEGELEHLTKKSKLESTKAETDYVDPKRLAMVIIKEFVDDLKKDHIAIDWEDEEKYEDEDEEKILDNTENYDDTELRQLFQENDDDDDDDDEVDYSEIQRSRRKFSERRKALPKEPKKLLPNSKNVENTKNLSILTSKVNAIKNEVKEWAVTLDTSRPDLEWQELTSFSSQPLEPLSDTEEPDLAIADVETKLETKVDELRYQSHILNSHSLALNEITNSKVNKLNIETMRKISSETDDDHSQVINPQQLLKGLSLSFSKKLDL
T3 sequence 2: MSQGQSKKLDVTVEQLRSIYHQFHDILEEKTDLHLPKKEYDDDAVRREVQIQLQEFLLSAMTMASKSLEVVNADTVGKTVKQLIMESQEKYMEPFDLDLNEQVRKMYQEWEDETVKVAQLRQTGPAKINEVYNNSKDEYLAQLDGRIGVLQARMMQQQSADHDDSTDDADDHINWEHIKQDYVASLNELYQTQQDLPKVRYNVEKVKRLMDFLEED

Sequence of recombinant S. cerevisiae NDC80 complex (Ndc80p, Nuf2p, Spc24p, Spc25p), His-tagged on Ndc80p (P40460 whole entry, chain 1 of 4, the tested form may be a part): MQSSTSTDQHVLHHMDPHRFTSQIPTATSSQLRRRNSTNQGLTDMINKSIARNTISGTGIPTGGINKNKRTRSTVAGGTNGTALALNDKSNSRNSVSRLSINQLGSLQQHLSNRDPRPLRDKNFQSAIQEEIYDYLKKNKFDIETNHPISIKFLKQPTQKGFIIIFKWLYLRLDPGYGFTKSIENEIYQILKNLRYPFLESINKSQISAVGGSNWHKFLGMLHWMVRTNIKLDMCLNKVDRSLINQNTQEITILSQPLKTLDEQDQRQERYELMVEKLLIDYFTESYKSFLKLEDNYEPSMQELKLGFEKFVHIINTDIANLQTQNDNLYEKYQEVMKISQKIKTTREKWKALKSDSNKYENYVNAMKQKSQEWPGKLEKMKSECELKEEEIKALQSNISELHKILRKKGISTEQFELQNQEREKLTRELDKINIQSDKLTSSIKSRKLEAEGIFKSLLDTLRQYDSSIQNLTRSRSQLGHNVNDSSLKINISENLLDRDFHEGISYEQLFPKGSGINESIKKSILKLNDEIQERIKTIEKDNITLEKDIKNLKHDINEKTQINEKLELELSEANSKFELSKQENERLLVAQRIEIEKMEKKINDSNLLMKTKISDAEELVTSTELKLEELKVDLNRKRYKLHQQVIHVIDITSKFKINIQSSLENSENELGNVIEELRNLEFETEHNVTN
Sequence of recombinant S. cerevisiae NDC80 complex (Ndc80p, Nuf2p, Spc24p, Spc25p), His-tagged on Ndc80p (P33895 whole entry, chain 2 of 4, the tested form may be a part): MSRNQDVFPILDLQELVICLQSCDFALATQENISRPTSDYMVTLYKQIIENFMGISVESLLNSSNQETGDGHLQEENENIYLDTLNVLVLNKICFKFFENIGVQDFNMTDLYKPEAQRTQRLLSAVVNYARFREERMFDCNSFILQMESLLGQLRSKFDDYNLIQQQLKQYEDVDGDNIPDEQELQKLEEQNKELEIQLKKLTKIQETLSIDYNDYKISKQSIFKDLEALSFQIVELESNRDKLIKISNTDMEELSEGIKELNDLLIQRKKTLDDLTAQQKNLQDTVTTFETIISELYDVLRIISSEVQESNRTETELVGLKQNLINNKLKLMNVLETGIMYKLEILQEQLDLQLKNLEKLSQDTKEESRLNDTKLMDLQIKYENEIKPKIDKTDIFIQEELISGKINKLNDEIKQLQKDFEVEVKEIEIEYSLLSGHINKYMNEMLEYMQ
Sequence of recombinant S. cerevisiae NDC80 complex (Ndc80p, Nuf2p, Spc24p, Spc25p), His-tagged on Ndc80p (Q04477 whole entry, chain 3 of 4, the tested form may be a part): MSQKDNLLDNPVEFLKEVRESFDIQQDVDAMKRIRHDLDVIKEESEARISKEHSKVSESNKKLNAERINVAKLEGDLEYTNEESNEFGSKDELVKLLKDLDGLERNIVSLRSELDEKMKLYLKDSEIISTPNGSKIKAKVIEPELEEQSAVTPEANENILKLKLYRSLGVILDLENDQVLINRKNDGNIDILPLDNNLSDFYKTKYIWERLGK
Sequence of recombinant S. cerevisiae NDC80 complex (Ndc80p, Nuf2p, Spc24p, Spc25p), His-tagged on Ndc80p (P40014 whole entry, chain 4 of 4, the tested form may be a part): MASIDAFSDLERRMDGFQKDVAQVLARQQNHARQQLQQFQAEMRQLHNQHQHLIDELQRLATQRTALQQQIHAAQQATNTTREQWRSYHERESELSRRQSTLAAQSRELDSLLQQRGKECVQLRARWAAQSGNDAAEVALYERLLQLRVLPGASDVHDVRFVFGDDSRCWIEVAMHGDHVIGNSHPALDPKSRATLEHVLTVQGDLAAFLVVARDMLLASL

**Q.** Which “binding against the reference” value [1] does the source give for “Dsn1p (from UniProt P40568) Ipl1p-phosphorylated MIND complex (Dsn1p pS250)” here?
**A.** Its value is “same”.

B1: MIND complex phosphorylated on Dsn1p Ser250 by Ipl1p (complex)
chain 1: MSLEPTQTVSGTPPMLHQRTHKQVYPLRMETIPILESDSKATLQSNEPTQKDEEETEYFENKQSVSNLSPDLKFKRHKNKHIQGFPTLGERLDNLQDIKKAKRVENFNSSAPIADDNHSGDATANATANATANATANVNASAMPAPYMPYYYYYHPMNAPTPAMIPYPGSPMHSIMPNSSLQPFYSQPTAAGGPDMTTPQNISSSQQLLPAPQLFPYGSFHQQQLQQPHYIQRTRERKKSIGSQRGRRLSMLASQANGGSTIISPHKDIPEEDFYTVVGNASFGKNLQIRQLFNWCLMRSLHKLELKAKNQEEEGELEHLTKKSKLESTKAETDYVDPKRLAMVIIKEFVDDLKKDHIAIDWEDEEKYEDEDEEKILDNTENYDDTELRQLFQENDDDDDDDDEVDYSEIQRSRRKFSERRKALPKEPKKLLPNSKNVENTKNLSILTSKVNAIKNEVKEWAVTLDTSRPDLEWQELTSFSSQPLEPLSDTEEPDLAIADVETKLETKVDELRYQSHILNSHSLALNEITNSKVNKLNIETMRKISSETDDDHSQVINPQQLLKGLSLSFSKKLDL
chain 2: MSAPTMRSTSILTEHLGYPPISLVDDIINAVNEIMYKCTAAMEKYLLSKSKIGEEDYGEEIKSGVAKLESLLENSVDKNFDKLELYVLRNVLRIPEEYLDANVFRLENQKDLVIVDENELKKSEEKLREKVNDVELAFKKNEMLLKRVTKVKRLLFTIRGFKQKLNELLKCKDDVQLQKILESLKPIDDTMTLLTDSLRKLYVDSESTSSTEEVEALLQRLKTNGKQNNKDFRTRYIDIRTNNVLRKLGLLGDKEDEKQSAKPDARTQAGDIVSIDIEEPQLDLLDDVL
chain 3: MVNSHGIRYIRLKQVFNRALDQSISKLQSWDKVSSCFPQYVNSKQGAINVANCQRQLTEFWTELCQREFKEIMEERNVEQKLNELDELILEAKERYTDRDQDEVNKGPAIDELSSKELVECHLYSQRMHAIHEIDERLAKVNEMNDQLAQELKDLETQVEVEKNEIGKMYDEYLGSHTDQPANVLLVQSLNDMVLELKENY
chain 4: MSQGQSKKLDVTVEQLRSIYHQFHDILEEKTDLHLPKKEYDDDAVRREVQIQLQEFLLSAMTMASKSLEVVNADTVGKTVKQLIMESQEKYMEPFDLDLNEQVRKMYQEWEDETVKVAQLRQTGPAKINEVYNNSKDEYLAQLDGRIGVLQARMMQQQSADHDDSTDDADDHINWEHIKQDYVASLNELYQTQQDLPKVRYNVEKVKRLMDFLEED
modifications: phosphoserine at 250
**Q.** Does B1 bind [2]?
**A.** Result: binds

B2: Nsl1p (natural protein)
chain: MSQGQSKKLDVTVEQLRSIYHQFHDILEEKTDLHLPKKEYDDDAVRREVQIQLQEFLLSAMTMASKSLEVVNADTVGKTVKQLIMESQEKYMEPFDLDLNEQVRKMYQEWEDETVKVAQLRQTGPAKINEVYNNSKDEYLAQLDGRIGVLQARMMQQQSADHDDSTDDADDHINWEHIKQDYVASLNELYQTQQDLPKVRYNVEKVKRLMDFLEED
**Q.** Does B2 bind [3]?
**A.** Result: binds

B3: Nnf1p (natural protein)
chain: MVNSHGIRYIRLKQVFNRALDQSISKLQSWDKVSSCFPQYVNSKQGAINVANCQRQLTEFWTELCQREFKEIMEERNVEQKLNELDELILEAKERYTDRDQDEVNKGPAIDELSSKELVECHLYSQRMHAIHEIDERLAKVNEMNDQLAQELKDLETQVEVEKNEIGKMYDEYLGSHTDQPANVLLVQSLNDMVLELKENY
**Q.** Does B3 bind [4]?
**A.** Result: binds

B4: Mtw1p–Nnf1p heterodimer (complex)
chain 1: MSAPTMRSTSILTEHLGYPPISLVDDIINAVNEIMYKCTAAMEKYLLSKSKIGEEDYGEEIKSGVAKLESLLENSVDKNFDKLELYVLRNVLRIPEEYLDANVFRLENQKDLVIVDENELKKSEEKLREKVNDVELAFKKNEMLLKRVTKVKRLLFTIRGFKQKLNELLKCKDDVQLQKILESLKPIDDTMTLLTDSLRKLYVDSESTSSTEEVEALLQRLKTNGKQNNKDFRTRYIDIRTNNVLRKLGLLGDKEDEKQSAKPDARTQAGDIVSIDIEEPQLDLLDDVL
chain 2: MVNSHGIRYIRLKQVFNRALDQSISKLQSWDKVSSCFPQYVNSKQGAINVANCQRQLTEFWTELCQREFKEIMEERNVEQKLNELDELILEAKERYTDRDQDEVNKGPAIDELSSKELVECHLYSQRMHAIHEIDERLAKVNEMNDQLAQELKDLETQVEVEKNEIGKMYDEYLGSHTDQPANVLLVQSLNDMVLELKENY
**Q.** Which “stoichiometry N” value [5] does the source give for B4 here?
**A.** The value was 1.
